How the values were obtained:
[1] = molecular target: T1, PEDF AAA variant (S24,114, 227A)
T1 chain: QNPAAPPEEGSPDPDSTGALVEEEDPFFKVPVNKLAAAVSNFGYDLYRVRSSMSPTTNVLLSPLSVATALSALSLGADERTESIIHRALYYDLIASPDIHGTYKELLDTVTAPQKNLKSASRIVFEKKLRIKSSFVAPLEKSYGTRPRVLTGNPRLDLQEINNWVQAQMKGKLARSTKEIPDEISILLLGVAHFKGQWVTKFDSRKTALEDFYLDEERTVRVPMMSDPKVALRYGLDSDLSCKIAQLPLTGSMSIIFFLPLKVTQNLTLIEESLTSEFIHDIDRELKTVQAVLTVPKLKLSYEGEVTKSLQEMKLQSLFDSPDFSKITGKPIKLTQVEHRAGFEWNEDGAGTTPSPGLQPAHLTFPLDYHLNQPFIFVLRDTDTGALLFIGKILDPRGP

[2] = molecular target: T2, PEDF AAE variant (S24,114A, 227E)
T2 chain: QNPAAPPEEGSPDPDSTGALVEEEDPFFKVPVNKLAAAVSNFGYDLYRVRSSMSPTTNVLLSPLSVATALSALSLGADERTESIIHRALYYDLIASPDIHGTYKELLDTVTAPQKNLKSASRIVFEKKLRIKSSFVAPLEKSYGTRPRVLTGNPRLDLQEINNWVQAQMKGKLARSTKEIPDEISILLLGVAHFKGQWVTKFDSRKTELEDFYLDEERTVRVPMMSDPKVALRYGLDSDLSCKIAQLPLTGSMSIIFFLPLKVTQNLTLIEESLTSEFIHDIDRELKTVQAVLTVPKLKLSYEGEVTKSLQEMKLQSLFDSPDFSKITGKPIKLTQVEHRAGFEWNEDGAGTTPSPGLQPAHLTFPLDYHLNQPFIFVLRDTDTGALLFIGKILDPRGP

[3] = molecular target: T3, Recombinant human pigment epithelium derived factor (rPEDF)
T3 chain: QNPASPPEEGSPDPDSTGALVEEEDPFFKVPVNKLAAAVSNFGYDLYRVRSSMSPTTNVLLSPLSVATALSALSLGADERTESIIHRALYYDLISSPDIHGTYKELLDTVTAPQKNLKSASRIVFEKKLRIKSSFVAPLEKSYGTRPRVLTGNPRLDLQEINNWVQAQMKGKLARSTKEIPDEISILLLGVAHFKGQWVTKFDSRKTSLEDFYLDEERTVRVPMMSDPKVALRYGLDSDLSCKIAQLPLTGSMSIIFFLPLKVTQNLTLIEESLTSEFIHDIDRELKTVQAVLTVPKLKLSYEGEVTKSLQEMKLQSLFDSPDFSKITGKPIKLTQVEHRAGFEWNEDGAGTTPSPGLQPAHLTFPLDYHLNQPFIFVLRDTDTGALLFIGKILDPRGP

[4] = molecular target: T4, PEDF EEE variant (S24,114, 227E)
T4 chain: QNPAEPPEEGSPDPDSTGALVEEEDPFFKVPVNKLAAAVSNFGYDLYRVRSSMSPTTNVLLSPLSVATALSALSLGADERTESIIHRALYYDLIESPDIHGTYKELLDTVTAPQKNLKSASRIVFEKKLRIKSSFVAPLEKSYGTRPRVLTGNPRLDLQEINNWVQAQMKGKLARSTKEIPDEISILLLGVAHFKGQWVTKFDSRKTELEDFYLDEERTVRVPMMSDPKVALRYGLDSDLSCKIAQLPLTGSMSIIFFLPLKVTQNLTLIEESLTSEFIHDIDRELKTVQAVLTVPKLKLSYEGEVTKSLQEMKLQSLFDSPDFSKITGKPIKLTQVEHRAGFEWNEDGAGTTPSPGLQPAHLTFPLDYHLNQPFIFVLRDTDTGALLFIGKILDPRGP

PEDF S227A variant = molecular target: T5, PEDF S227A variant
T5 chain: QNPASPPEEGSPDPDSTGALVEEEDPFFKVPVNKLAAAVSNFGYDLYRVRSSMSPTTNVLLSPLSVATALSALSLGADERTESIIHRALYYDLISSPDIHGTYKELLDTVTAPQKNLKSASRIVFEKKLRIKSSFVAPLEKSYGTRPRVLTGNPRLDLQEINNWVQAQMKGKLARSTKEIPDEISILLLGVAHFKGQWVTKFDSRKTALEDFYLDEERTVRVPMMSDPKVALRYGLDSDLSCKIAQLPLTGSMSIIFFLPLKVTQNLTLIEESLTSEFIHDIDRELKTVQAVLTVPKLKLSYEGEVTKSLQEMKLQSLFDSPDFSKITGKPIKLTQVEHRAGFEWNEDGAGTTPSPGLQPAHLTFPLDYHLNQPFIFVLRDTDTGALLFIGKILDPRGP

[5] = molecular target: T6, PEDF purified from human plasma (plPEDF)
T6 chain: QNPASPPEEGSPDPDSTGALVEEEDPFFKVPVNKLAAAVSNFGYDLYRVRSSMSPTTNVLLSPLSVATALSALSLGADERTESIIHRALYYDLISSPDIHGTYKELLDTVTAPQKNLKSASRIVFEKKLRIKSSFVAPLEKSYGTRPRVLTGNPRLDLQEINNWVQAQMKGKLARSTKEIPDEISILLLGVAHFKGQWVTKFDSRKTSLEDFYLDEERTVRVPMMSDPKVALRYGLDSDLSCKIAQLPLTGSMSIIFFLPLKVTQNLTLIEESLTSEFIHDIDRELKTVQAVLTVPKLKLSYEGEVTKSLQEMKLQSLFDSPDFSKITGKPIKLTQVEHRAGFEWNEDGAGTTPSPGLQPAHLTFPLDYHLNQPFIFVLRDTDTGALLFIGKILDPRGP

[6] = molecular target: T7, PEDF EEA variant (S24,114E, 227A)
T7 chain: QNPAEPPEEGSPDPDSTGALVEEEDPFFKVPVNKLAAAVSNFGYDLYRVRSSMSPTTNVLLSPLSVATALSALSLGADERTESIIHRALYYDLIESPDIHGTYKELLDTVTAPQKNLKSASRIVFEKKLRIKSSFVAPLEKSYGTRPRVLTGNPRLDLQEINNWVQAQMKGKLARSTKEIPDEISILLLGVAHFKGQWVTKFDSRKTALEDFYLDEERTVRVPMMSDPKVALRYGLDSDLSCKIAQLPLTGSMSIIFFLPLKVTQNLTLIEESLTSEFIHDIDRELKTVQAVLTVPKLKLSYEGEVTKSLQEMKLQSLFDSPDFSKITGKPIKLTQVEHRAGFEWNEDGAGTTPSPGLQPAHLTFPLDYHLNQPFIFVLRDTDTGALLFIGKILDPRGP

PEDF S227E variant = molecular target: T8, PEDF S227E variant
T8 chain: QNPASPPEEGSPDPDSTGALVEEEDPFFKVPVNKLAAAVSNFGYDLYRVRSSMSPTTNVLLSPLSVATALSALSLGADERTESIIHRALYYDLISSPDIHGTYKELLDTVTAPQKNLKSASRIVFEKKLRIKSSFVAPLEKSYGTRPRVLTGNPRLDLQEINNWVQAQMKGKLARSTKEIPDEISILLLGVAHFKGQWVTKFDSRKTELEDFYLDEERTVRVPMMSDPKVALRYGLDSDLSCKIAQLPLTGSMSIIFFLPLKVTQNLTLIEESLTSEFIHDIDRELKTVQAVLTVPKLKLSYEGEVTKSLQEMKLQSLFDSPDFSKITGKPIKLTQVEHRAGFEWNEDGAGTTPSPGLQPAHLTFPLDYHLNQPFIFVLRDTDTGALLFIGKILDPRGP

B1: Recombinant human CK2 (casein kinase CK2) (protein)
chain: MSGPVPSRARVYTDVNTHRPREYWDYESHVVEWGNQDDYQLVRKLGRGKYSEVFEAINITNNEKVVVKILKPVKKKKIKREIKILENLRGGPNIITLADIVKDPVSRTPALVFEHVNNTDFKQLYQTLTDYDIRFYMYEILKALDYCHSMGIMHRDVKPHNVMIDHEHRKLRLIDWGLAEFYHPGQEYNVRVASRYFKGPELLVDYQMYDYSLDMWSLGCMLASMIFRKEPFFHGHDNYDQLVRIAKVLGTEDLYDYIDKYNIELDPRFNDILGRHSRKRWERFVHSENQHLVSPEALDFLDKLLRYDHQSRLTAREAMEHPYFYTVVKDQARMGSSSMPGGSTPVSSANMMSGISSVPTPSPLGPLAGSPVIAAANPLGMPVPAAAGAQQ
in vitro phosphorylation by CK2 [1]: The AAE and the AAA variants almost completely abolished CK2 phosphorylation
in vitro phosphorylation by CK2 [2]: The AAE and the AAA variants almost completely abolished CK2 phosphorylation
in vitro phosphorylation by CK2 ([γ32P]-ATP, SDS-PAGE, autoradiography) [3]: the phosphorylation of the plPEDF by CK2 was significantly lower than CK2 phosphorylation of the rPEDF
in vitro phosphorylation by CK2 [4]: the triple mutants EEE and EEA were readily phosphorylated by CK2
in vitro phosphorylation by CK2 ([γ32P]-ATP, SDS-PAGE, autoradiography) (PEDF S227A variant): both readily phosphorylated by CK2
in vitro phosphorylation by CK2 ([γ32P]-ATP, SDS-PAGE, autoradiography) [5]: the phosphorylation of the plPEDF by CK2 was significantly lower than CK2 phosphorylation of the rPEDF
in vitro phosphorylation by CK2 [6]: the triple mutants EEE and EEA were readily phosphorylated by CK2
in vitro phosphorylation by CK2 ([γ32P]-ATP, SDS-PAGE, autoradiography) (PEDF S227E variant): both readily phosphorylated by CK2
